Target: T1, HD_(N-TIMP2,V3) bi-specific heterodimer (N-TIMP2 fused by a linker to V3, the engineered soluble …)
T1 construct: flexible linker; Order on the chain: N-TIMP2, linker, V3, human IgG1 Fc, 6xHis; Vector pFUSE-hIgG1e3-Fc1; Glycosylated; also called bi-specific fusion protein; source: HEK293F, transiently transfected, secreted, purified (Ni-NTA, gel filtration); not shown: Fc (human IgG1), C-terminal, kept
Assay: BLI; Octet Red; HD_(N-TIMP2,V3) or V3 loaded on Protein A sensors (10 ug/ml, 300 s); IL-17A or MMP-9CAT in solution at 50, 100, 200 nM; 300 s association, 1800-2500 s dissociation; 30 C; PBS, 1% BSA, 0.05% Tween; 1:1 binding model
Conditions: both partners purified

B1: MMP-9CAT (soluble MMP-9 catalytic domain) (enzyme)
chain: FQTFEGDLKWHHHNITYWIQNYSEDLPRAVIDDAFARAFALWSAVTPLTFTRVYSRDADIVIQFGVAEHGDGYPFDGKDGLLAHAFPPGPGIQGDAHFDDDELWSLGKGQGYSLFLVAAHEFGHALGLDHSSVPEALMYPMYRFTEGPPLHKDDVNGIRHLY
modifications: Active enzyme, catalytic and structural Zn2+ and Ca2+ (assay buffer has 5 mM CaCl2). Limits are not printed in the text given. Taken by convention from the MMP-9 catalytic domain lacking the …
Kd: 1.65 ± 0.02 nM
